Results published in publication doi:10.1101/2023.11.02.23297943 (medRxiv, 2023).
Residue numbers refer to the chain shown, from its start.

B1: mitochondrial single-stranded DNA-binding protein 1 (SSBP1), wild-type recombinant protein (natural protein, human, UniProt Q04837 17-148, looked up)
chain: ESETTTSLVLERSLNRVHLLGRVGQDPVLRQVEGKNPVTIFSLATNEMWRSGDSEVYQLGDVSQKTTWHRISVFRPGLRDVAYQYVKKGSRIYLEGKIDYGEYMDKNNVRRQATTIIADNIIFLSDQTKEKE
B2: SSBP1 p.Arg91Gln mutant, recombinant protein (natural protein, human, UniProt Q04837 17-148, looked up)
chain: B1 chain with R75Q

Biological target: the molecule itself
Experiment: cross-linking

Protein	binding result	percent of dimers formed, compared to wild-type	percent of tetramers formed, compared to wild-type	percent of trimers formed, compared to wild-type
B1	binds	–	–	–
B2	–	37.4 % of wild-type	20.5 % of wild-type	12.7 % of wild-type
